The text below walks through data of publication PMC8631942 (eLife, 2021).

For assay [1], the target named is T1, His10-BTLA^ICD BTLA^FFFY, pre-phosphorylated (human, UniProt Q7Z6A9 190-289, Y226F | Y243F | Y257F, pre-phosphorylated with Fyn; lone tyrosine (Y282) in the ITSM).
T1 construct: BTLA intracellular domain, human, aa 190-289; triple-tyrosine mutant; Monomeric fraction of the gel filtration was used; also called BTLA-ITSM; source: E. coli (pET28A), purified (Ni-NTA, gel filtration); phosphorylated with purified Fyn; not shown: His10, N-terminal, kept
T1 sequence (looked up): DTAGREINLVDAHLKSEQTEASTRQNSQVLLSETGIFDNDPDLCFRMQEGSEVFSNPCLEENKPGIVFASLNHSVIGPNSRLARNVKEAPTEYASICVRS
The experiment in a line: SPR; OpenSPR (Nicoya); pre-phosphorylated His10-tagged PD-1 or BTLA ICD immobilised on a Ni sensor chip (about 1500 RU); SH2 injected at 20-1000 nM, 20 μl/min; 20 mM HEPES, 150 mM NaCl, 5 mM imidazole, 0.05% Tween-20, 10% glycerol, pH 7.5; equilibrium analysis (Evaluate EC50, TraceDrawer). To be noted: both partners purified.

In assay [2] the target is T2, His10-PD-1^ICD PD-1^FY, pre-phosphorylated (human, UniProt Q15116 194-288, Y223F, pre-phosphorylated with Fyn; the only tyrosine is in the ITSM (Y248)).
T2 construct: Monomeric fraction of the gel filtration was used; also called PD-1-ITSM; phosphorylated PD-1-ITSM; source: E. coli (pET28A), purified (Ni-NTA, gel filtration); phosphorylated with purified Fyn; not shown: His10, N-terminal, kept
T2 sequence (looked up): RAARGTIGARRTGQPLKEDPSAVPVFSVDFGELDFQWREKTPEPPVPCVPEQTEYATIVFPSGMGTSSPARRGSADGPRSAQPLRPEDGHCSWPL
The description is as above. The note with it: both partners purified.

B1: SNAP-SHP1-cSH2 (domain or fragment)
chain: WYHGHMSGGQAETLLQAKGEPWTFLVRESLSQPGDFVLSVLSDQPKAGPGSPLRVTHIKVMCEGGRYTVGGLETFDSLTDLVEHFKKTGIEEASGAFVYLRQPY
With B1, the Kd (as a rule, the constant that tells how readily two partners part at equilibrium) turned out to be 860 nM in assay [1] and 1700 nM in assay [2].
